For assay [1], the target named is T1, human transferrin receptor (human TfR) (human, UniProt P02786 89-760, limits assumed).
T1 construct: Recombinant target coated on plates or biotinylated and captured on streptavidin (ELISA, BLI); also called huTfR
In words: phage ELISA. On the procedure: (§1) Clones were selected from panning outputs and grown in individual wells of 96-well deep-well plates. The clones were either induced for periplasmic expression using autoinduction media (obtained from EMD Millipore) or infected with helper phage for phage-display of the individual Fc variants on phage. The cultures were grown overnight and spun to pellet E. coli. For phage ELISA, phage containing supernatant was used directly. For periplasmic expression, pellets were resuspended in 20% sucrose, followed by dilution at 4:1 with water, and shaken at 4° C. for 1 hour. Plates were spun to pellet the solids and supernatant was used in the ELISA.
(§2) ELISA plates were coated with target, typically at […] overnight, then blocked with 1% BSA before addition of phage or periplasmic extracts. […] The plates were washed again, and then developed with TMB reagent and quenched with 2N sulfuric acid. Absorbance at 450 nm was quantified using a plate reader (BioTek®) and binding curves were plotted using Prism software where applicable. Absorbance signal for tested clones was compared to negative control (phage or paraplasmic extract lacking Fc). In some assays, soluble holo-transferrin was added during the binding step, typically at significant molar excess (greater than 10-fold excess).
(§3) Individual CH2A2 variants were expressed on the surface of phage and assayed for binding to human TfR, cyno TfR, or an irrelevant control by ELISA. Expression of Fc was confirmed by ELISA against anti-Myc antibody 9E10, which bound to the C-terminal c-Myc epitope tag. […] The three clones from group 1 also bound to cyno TfR, whereas the one clone from group 2 (i.e., clone 2A2.16) was specific for human TfR.
A general note: An ELISA detects its analyte on a solid surface through an enzyme-linked reagent.

Assay [2] has as its target cynomolgus transferrin receptor (cyno TfR) (cynomolgus monkey, UniProt H9EXL1 89-760 (rhesus entry)). In words: phage ELISA. On the procedure:
as §1, §2, §3

Data on 4 molecules can be found in US20220017634A1 (DENALI THERAPEUTICS, published 2022).

T1 sequence (P02786 89-760 limits assumed): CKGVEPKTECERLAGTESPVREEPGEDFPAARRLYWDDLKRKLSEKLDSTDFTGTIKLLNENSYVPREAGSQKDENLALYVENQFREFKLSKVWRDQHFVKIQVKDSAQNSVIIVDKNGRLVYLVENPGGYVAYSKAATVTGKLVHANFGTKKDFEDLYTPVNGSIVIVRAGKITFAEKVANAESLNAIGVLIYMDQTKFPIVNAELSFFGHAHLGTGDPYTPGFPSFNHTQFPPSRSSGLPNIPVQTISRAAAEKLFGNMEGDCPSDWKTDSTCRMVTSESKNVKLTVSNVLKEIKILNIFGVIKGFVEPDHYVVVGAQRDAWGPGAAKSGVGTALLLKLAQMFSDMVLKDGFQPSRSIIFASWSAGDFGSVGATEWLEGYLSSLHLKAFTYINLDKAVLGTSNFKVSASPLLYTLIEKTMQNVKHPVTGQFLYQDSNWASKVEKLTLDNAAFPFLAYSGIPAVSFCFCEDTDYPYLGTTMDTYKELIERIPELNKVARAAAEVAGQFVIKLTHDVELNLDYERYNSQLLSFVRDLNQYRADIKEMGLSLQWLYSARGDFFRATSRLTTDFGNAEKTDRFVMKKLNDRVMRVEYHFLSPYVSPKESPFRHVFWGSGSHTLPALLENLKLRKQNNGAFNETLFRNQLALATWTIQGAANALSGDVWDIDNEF
cynomolgus transferrin receptor (cyno TfR), sequence (chain, as listed by the source): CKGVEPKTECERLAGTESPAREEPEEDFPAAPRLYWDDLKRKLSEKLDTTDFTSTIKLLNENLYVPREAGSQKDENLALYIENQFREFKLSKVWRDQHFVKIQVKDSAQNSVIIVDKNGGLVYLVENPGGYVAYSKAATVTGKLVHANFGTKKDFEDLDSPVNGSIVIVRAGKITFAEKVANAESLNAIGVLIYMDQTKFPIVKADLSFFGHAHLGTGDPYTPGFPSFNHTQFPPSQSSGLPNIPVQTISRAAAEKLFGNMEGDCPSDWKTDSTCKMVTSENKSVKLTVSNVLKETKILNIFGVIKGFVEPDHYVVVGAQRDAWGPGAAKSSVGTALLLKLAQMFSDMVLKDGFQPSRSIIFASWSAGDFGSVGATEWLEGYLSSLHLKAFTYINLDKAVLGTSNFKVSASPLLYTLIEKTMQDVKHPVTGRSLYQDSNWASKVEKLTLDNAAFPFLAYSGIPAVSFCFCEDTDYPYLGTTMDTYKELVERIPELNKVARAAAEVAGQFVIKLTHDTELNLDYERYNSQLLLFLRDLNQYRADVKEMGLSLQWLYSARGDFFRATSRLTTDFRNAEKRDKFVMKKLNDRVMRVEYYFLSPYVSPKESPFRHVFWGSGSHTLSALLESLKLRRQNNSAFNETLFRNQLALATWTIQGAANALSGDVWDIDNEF

B1: Clone CH2A2.4, Fc displayed on phage (designed binder)
chain: APELLGGPSVFLFPPKPKDTLMISRTPEVTCVVVDVSHEDPEVSFEWYVDGVPVRWEWQWPREEQYNSTYRVVSVLTVLHQDWLNGKEYKCKVSNKALPAPIEKTISKAKGQPREPQVYTLPPSRDELTKNQVSLTCLVKGFYPSDIAVEWESNGQPENNYKTTPPVLDSDGSFFLYSKLTVDKSRWQQGNVFSCSVMHEALHNHYTQKSLSLSPGK
notes: As m16
Consider B1, for which the binding result in assay [1] is on record as “binds”.

B2: Clone CH2A2.16, Fc displayed on phage (designed binder)
chain: APELLGGPSVFLFPPKPKDTLMISRTPEVTCVVVDVSHEDPEVWFEWYVDGVFVGVAYDVPREEQYNSTYRVVSVLTVLHQDWLNGKEYKCKVSNKALPAPIEKTISKAKGQPREPQVYTLPPSRDELTKNQVSLTCLVKGFYPSDIAVEWESNGQPENNYKTTPPVLDSDGSFFLYSKLTVDKSRWQQGNVFSCSVMHEALHNHYTQKSLSLSPGK
notes: As m16
B2: the binding result is reported as “binds” in assay [1] and “no binding” in assay [2].

B3: Clone CH2A2.5, Fc displayed on phage (designed binder)
chain: APELLGGPSVFLFPPKPKDTLMISRTPEVTCVVVDVSHEDPEVAFTWYVDGVPVRWEWQNPREEQYNSTYRVVSVLTVLHQDWLNGKEYKCKVSNKALPAPIEKTISKAKGQPREPQVYTLPPSRDELTKNQVSLTCLVKGFYPSDIAVEWESNGQPENNYKTTPPVLDSDGSFFLYSKLTVDKSRWQQGNVFSCSVMHEALHNHYTQKSLSLSPGK
notes: As m16
For B3, in assay [1], the binding result is listed as “binds”.

B4: Clone CH2A2.1, Fc displayed on phage (designed binder)
chain: APELLGGPSVFLFPPKPKDTLMISRTPEVTCVVVDVSHEDPEVEFIWYVDGVDVRYEWQLPREEQYNSTYRVVSVLTVLHQDWLNGKEYKCKVSNKALPAPIEKTISKAKGQPREPQVYTLPPSRDELTKNQVSLTCLVKGFYPSDIAVEWESNGQPENNYKTTPPVLDSDGSFFLYSKLTVDKSRWQQGNVFSCSVMHEALHNHYTQKSLSLSPGK
notes: Fc dimer on phage (pIII fusion with c-Myc and 6xHis tags paired with soluble Fc)
With B4, the binding result in assay [1] is reported as “binds”.
